Five molecules from PMC3750173, “Ferredoxin Competes with Bacterial Frataxin in Binding to the Desulfurase IscS*^([image sbox.jpg])” (The Journal of Biological Chemistry, 2013) can be followed below.

The target of assay [1] is holo-Fdx (cluster-loaded E. coli ferredoxin) (E. coli) (UniProt P0A9R4). Nature of the assay: SAXS; solutions of 2.5-5.0 mg/ml at 10 °C; IscS alone and holo-Fdx·IscS complex.
Assay [2] shares this target. Description: BLI; biotinylated holo-Fdx on streptavidin biosensors, IscS 0-60 μM; 20 mM HEPES pH 7.5, 150 mM NaCl, 2 mM TCEP, 0.5 mg/ml BSA, 25 °C; Kd from the amplitude at equilibrium. In general terms: Biolayer interferometry detects binding as a change in optical thickness at a sensor tip.
Another assay has as its target T1, IscS_D346K/E347K (E. coli, UniProt P0A6B7 1-404, D346K | E347K).
T1 construct: cysteine desulfurase IscS, E. coli; site-directed mutant of pET-11 IscS
Description: NMR titration; 15N-SOFAST HMQC of [15N]- or [15N/2H]Fdx or Fdx mutants titrated with unlabelled IscS or IscS mutants; 20 mM Tris, 150 mM NaCl, 20 mM TCEP, pH 8, 298 K. Particulars: both partners purified.

The target in another assay is T2, IscS_R112E/R116E (E. coli, UniProt P0A6B7 1-404, R112E | R116E).
T2 construct: cysteine desulfurase IscS, E. coli; site-directed mutant of pET-11 IscS; designed after the first round of docking
The description is as above. Particulars: both partners purified.

The target of another assay is T3, IscS_I314E/M315E (E. coli, UniProt P0A6B7 1-404, I314E | M315E).
T3 construct: cysteine desulfurase IscS, E. coli; site-directed mutant of pET-11 IscS
Described as above. Conditions: both partners purified.

Assay [3] addresses T4, IscS (E. coli desulfurase), wild type (E. coli, UniProt P0A6B7 1-404).
T4 construct: cysteine desulfurase IscS, E. coli; construct pET-11 IscS (EMBL-Hamburg); Dimer by SAXS; also called desulfurase IscS
The assay is described as above. Particulars: both partners purified.

Assay [4] has as its target T4, IscS (E. coli desulfurase), wild type. Description: NMR titration; competition: holo-Fdx·IscS sample (with IscU added before) titrated with CyaY up to 3 molar excess over holo-Fdx; 20 mM Tris, 150 mM NaCl, 20 mM TCEP, pH 8, 298 K. Conditions: both partners purified.

In assay [1], “IscS (E. coli desulfurase), wild type (from UniProt P0A6B7 1-404) (enzyme)” returned a percent of free components of 10%, a percent of the complex (OLIGOMER fit) of 80% and a stoichiometry N (IscS:Fdx (2:2)) of 1. In addition, the Kd in assay [2] is 1.5 µM.

B1: holo-Fdx (cluster-loaded E. coli ferredoxin) (natural protein)
chain: MPKIVILPHQDLCPDGAVLEANSGETILDAALRNGIEIEHACEKSCACTTCHCIVREGFDSLPESSEQEDDMLDKAWGLEPESRLSCQARVTDEDLVVEIPRYTINHAREH
modifications: [2Fe-2S] cluster bound (holo); biotinylated for BLI (site not stated); 15N or 15N/2H labelled for NMR
notes: ferredoxin (Fdx) of the isc operon, E. coli; fdx amplified from E. coli genomic DNA into a modified pET-24 vector; The same construct was used 15N- or 15N/2H-labelled in NMR and biotinylated on streptavidin biosensors in BLI; residues left after TEV cleavage and the NcoI site are not described; also called [15N]holo-Fdx; [15N/2H]holo-Fdx; source: E. coli, purified (nickel-nitrilotriacetic …)
Take B1: the binding result with IscS_D346K/E347K, with IscS_R112E/R116E and in the assay with IscS_I314E/M315E was “binds” throughout.

B2: holo-Fdx_D11K (natural protein, E. coli)
chain: MPKIVILPHQKLCPDGAVLEANSGETILDAALRNGIEIEHACEKSCACTTCHCIVREGFDSLPESSEQEDDMLDKAWGLEPESRLSCQARVTDEDLVVEIPRYTINHAREH
modifications: [2Fe-2S] cluster bound (holo); 15N labelled
notes: ferredoxin (Fdx) of the isc operon, E. coli; mutant of the pET-24 construct; source: E. coli, purified (nickel-nitrilotriacetic acid-agarose, TEV cleavage, Superdex G75, MonoQ); not shown: GST, N-terminal, cleaved; His tag, N-terminal, cleaved
Take B2: in assay [3], the binding result was “binds”.

B3: holo-Fdx_E57K/D60K (natural protein, E. coli)
chain: MPKIVILPHQDLCPDGAVLEANSGETILDAALRNGIEIEHACEKSCACTTCHCIVRKGFKSLPESSEQEDDMLDKAWGLEPESRLSCQARVTDEDLVVEIPRYTINHAREH
modifications: [2Fe-2S] cluster bound (holo); 15N labelled
notes: as for B2
Consider B3, for which the binding result in assay [3] was “binds”.

B4: CyaY (bacterial ortholog of frataxin) (natural protein, E. coli, UniProt P27838 1-106, looked up)
chain: MNDSEFHRLADQLWLTIEERLDDWDGDSDIDCEINGGVLTITFENGSKIIINRQEPLHQVWLATKQGGYHFDLKGDEWICDRSGETFWDLLEQAATQQAGETVSFR
notes: CyaY, the bacterial ortholog of frataxin, E. coli; also called bacterial frataxin
Consider B4, for which the binding result in assay [4] is on record as “binds”.

Broadly, the Kd is the concentration at which binding is half-saturated. Higher therefore signals weaker binding.
